Source: PMC5479578 (Biochemistry, 2017)
One block for each molecule: values may come before it. Square brackets hold non-standard residues; d marks the D form. Ends that are not written are not given here. Peptide text beside a SMILES is read from it. * marks the point of attachment. FITC = O=C1OC2(c3ccc(O)cc3Oc3cc(O)ccc32)c2ccc(NC(=S)*)cc21; Biotin = O=C1N[C@H]2[C@H](CS[C@H]2CCCCC(=O)*)N1; pT = C[C@@H](OP(=O)(O)O)[C@H](N)C(=O)O

Assays:
PDZ2 of NHERF1 [1] = biological target: T1, PDZ2 of NHERF1 (Homo sapiens, UniProt O14745); test: Surface plasmon resonance, NHERF1 PDZ2; format: binding
T1 sequence (O14745 133-300): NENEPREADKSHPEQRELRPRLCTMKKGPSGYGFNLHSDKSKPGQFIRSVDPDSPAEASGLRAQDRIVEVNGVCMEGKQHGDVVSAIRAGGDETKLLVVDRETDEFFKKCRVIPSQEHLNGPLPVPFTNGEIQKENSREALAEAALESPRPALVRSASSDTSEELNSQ

[2] = biological target: NHERF1 PDZ1 domain (1-140) (human) (UniProt O14745); test: ITC
[3] = biological target: NHERF1 PDZ2 domain (133-300) (human) (UniProt O14745); test: ITC
PDZ1 of NHERF1 = biological target: T2, PDZ1 of NHERF1 (Homo sapiens, UniProt O14745); test: Isothermal titration calorimetry, NHERF1 PDZ1; format: binding
T2 sequence (O14745 1-140): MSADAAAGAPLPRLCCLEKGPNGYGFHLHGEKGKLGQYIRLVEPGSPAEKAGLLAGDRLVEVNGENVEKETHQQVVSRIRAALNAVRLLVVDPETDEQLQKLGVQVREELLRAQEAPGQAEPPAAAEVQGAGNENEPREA

PDZ2 of NHERF1 [4] = biological target: T1, PDZ2 of NHERF1; test: Isothermal titration calorimetry, NHERF1 PDZ2; format: binding
PTHR = test: Mass spectrometry of PTHR phosphorylation in cell lysates; format: cell-based; details: PTH(1–34) treatment; MS-MS of cell lysates
[5] = biological target: T3, NHERF1 PDZ1 domain (1-140) (human, UniProt O14745 1-140); test: ITC
T3 sequence (looked up): T2 sequence (O14745 1-140)

[6] = biological target: T4, NHERF1 PDZ2 domain (133-300) (human, UniProt O14745 133-300); test: ITC
T4 sequence (looked up): T1 sequence (O14745 133-300)

[7] = biological target: T3, NHERF1 PDZ1 domain (1-140); test: fluorescence polarisation
[8] = biological target: T3, NHERF1 PDZ1 domain (1-140); test: fluorescence polarisation; remark: listed apart in the source
[9] = biological target: T4, NHERF1 PDZ2 domain (133-300); test: fluorescence polarisation
[10] = biological target: T3, NHERF1 PDZ1 domain (1-140); test: fluorescence polarisation; remark: listed apart in the source
[11] = biological target: T4, NHERF1 PDZ2 domain (133-300); test: fluorescence polarisation; remark: listed apart in the source
[12] = biological target: T3, NHERF1 PDZ1 domain (1-140); test: fluorescence polarisation; remark: listed apart in the source
[13] = biological target: T4, NHERF1 PDZ2 domain (133-300); test: fluorescence polarisation; remark: listed apart in the source
[14] = biological target: T3, NHERF1 PDZ1 domain (1-140); test: fluorescence polarisation; remark: listed apart in the source
[15] = biological target: T4, NHERF1 PDZ2 domain (133-300); test: fluorescence polarisation; remark: listed apart in the source
[16] = biological target: T3, NHERF1 PDZ1 domain (1-140); test: SPR
[17] = biological target: T4, NHERF1 PDZ2 domain (133-300); test: SPR
[18] = biological target: T3, NHERF1 PDZ1 domain (1-140); test: SPR; remark: listed apart in the source
[19] = biological target: T4, NHERF1 PDZ2 domain (133-300); test: SPR; remark: listed apart in the source
[20] = biological target: T4, NHERF1 PDZ2 domain (133-300); test: fluorescence polarisation; remark: listed apart in the source

Molecule: CSCC[C@H](NC(=O)[C@@H](NC(=O)[C@@H](NC(=O)[C@H](CCC(=O)O)NC(=O)[C@H](Cc1c[nH]c2ccccc12)NC(=O)[C@H](CCC(=O)O)NC(=O)[C@H](CCC(=O)O)NC(=O)[C@H](CCC(N)=O)NC(=O)[C@H](CC(C)C)NC(=O)[C@H](CC(C)C)NC(=O)[C@H](C)NC(=O)[C@@H]1CCCN1C(=O)[C@@H]1CCCN1C(=O)[C@H](CCCNC(=N)N)NC(=O)[C@H](CCC(=O)O)NC(=O)[C@@H]1CCCN1C(=O)CNC(=O)[C@H](CO)NC(=O)[C@H](C)NC(=O)[C@H](CCC(=O)O)NC(=O)[C@H](CCC(=O)O)NC(=O)[C@H](CC(=O)O)NC(=O)CCCC[C@@H]1SC[C@@H]2NC(=O)N[C@@H]21)[C@@H](C)O)C(C)C)C(=O)O [b-PTHRct-22] (Biotin-DEEASGPERPPALLQEEWETVM-OH)
Kd (PDZ2 of NHERF1 [1]): 11.5 ± 0.4 µM

Molecule: PTHRct-8 peptide with Ala at Glu-3
Kd [2]: 34.2 µM
stoichiometry N [2]: 1.15
Kd [3]: 35.5 µM
dH [3]: -8.6 kcal/mol
stoichiometry N [3]: 0.88

Molecule: PTHRct-8 peptide with Ala at Glu-5
Kd [2]: 25.5 µM
dH [2]: -7.6 kcal/mol
stoichiometry N [2]: 1.21
Kd [3]: 26.8 µM
dH [3]: -10.3 kcal/mol

Molecule: PTHRct-8 peptide with Ala at Glu-6
Kd [2]: 13.1 µM
dH [2]: -4.3 kcal/mol
stoichiometry N [2]: 1.1
Kd [3]: 18.1 µM
stoichiometry N [3]: 1.12

Molecule: PTHRct-8 peptide with Ala at Glu-6 and Glu-5
Kd [2]: 24.4 µM
dH [2]: -3.8 kcal/mol
stoichiometry N [2]: 1.26
Kd [3]: 57.8 µM
dH [3]: -7.2 kcal/mol
stoichiometry N [3]: 1.26

Molecule: QAAWETVM [QAAWETVM]
Kd (PDZ1 of NHERF1): 24.4 ± 0.6 µM

Molecule: QAEWETVM [QAEWETVM]
Kd (PDZ1 of NHERF1): 13.1 ± 1.7 µM
Kd (PDZ2 of NHERF1 [4]): 18.1 ± 2.4 µM

Molecule: human Nle^8,18Tyr^34-PTH(1–34)
phosphorylation of PTHR Thr591 (PTHR): promoted phosphorylation of Thr591

Molecule: LQEEWETVM [unlabeled carboxy-terminal PTHR 9-residue peptide]
Ki [7]: 1.4 ± 0.9 µM

Molecule: {FITC}-LQEEWETVM [FITC-labeled carboxy-terminal PTHR 9-residue peptide]
Kd [8]: 0.4 µM
Kd [9]: 0.4 µM
Kd [10]: 1 µM
Kd [11]: 0.6 µM
Kd [12]: 4.7 µM
Kd [13]: 2.4 µM
Kd [14]: 1 µM
Kd [15]: 0.6 µM

The next lines start with the values.

n (stoichiometry) (PDZ1 of NHERF1; ITC, PDZ1, 25 °C, mean ± S.E.M. (n = 3)): 1.12 ± 0.03
n (stoichiometry) (PDZ2 of NHERF1 [4]; ITC, PDZ2, 25 °C, mean ± S.E.M. (n = 3)): 1.04 ± 0.02
Molecule: QEAWATVM

Kd (PDZ1 of NHERF1): 25.5 ± 1.1 µM
Kd (PDZ2 of NHERF1 [4]): 26.8 ± 2.1 µM
Molecule: QEAWETVM [QEAWETVM]

Kd (PDZ1 of NHERF1): 34.2 ± 0.5 µM
Kd (PDZ2 of NHERF1 [4]): 35.5 ± 2 µM
Molecule: QEEWATVM [QEEWATVM]

Kd [5]: 11.7 µM
dH [5]: -10.6 kcal/mol
stoichiometry N [5]: 1.11
Kd [6]: 9.7 µM
dH [6]: -21.6 kcal/mol
stoichiometry N [6]: 1.13
Molecule: QEEWETVM [wild-type PTHRct-8 peptide]

Ki [7]: 11 µM
Molecule: LQEEWECVM [Thr-2/Cys-2 mutant of PTHRct-9]

Ki [7]: 121 µM
Molecule: LQEEWE[pT]VM [phosphorylated Thr-2-PTHRct-9]

koff [16]: 0.606 s⁻¹
kon [16]: 14700 M⁻¹ s⁻¹
koff [17]: 0.393 s⁻¹
kon [17]: 57000 M⁻¹ s⁻¹
Kd [18]: 16 µM
Kd [19]: 11.5 µM
Ki [20]: 7 µM
Molecule: Biotin-DEEASGPERPPALLQEEWETVM [biotinylated carboxy-terminal 22-amino acid PTHR peptide]
